The subject of experiment [1] is isolated ureteric bud. Description: Isolated ureteric bud culture in 3D extracellular matrix gel (soluble factor effects). Format: cell-based, rat. To be noted: for growth of the isolated UB, single soluble factor: factor by itself; for induction of isolated UB, WD, or UB and WD branching morphogenesis: factor alone or in combination with GDNF, without BSN-CM; for Shape: rat E13 isolated UB in 3D gel, GDNF 125 ng/ml, HRG 500 ng/ml, FGF1 250 ng/ml, FGF7 50 ng/ml, PTN purified from BSN-CM. The procedure: In the case of culture of the isolated UB, WD, or UB and WD, the isolated kidneys were trypsinized for 15 min at 37° C. in L-15 media containing 2 μg/ml trypsin (Sigma). Trypsin digestion was arrested by the addition of 10% FCS and the kidneys were removed to fresh L-15 where the UBs, WDs, or UBs and WDs were isolated from surrounding MM by mechanical dissection. isolated UBs, WDs, or UBs and WDs were suspended within an extracellular matrix gel [1:1 mixture of growth factor reduced Matrigel™ (BD) and Type 1 collagen (BD)] applied to the top of a polyester Transwell filter (0.4 μm pore size; Corning-Costar). The Transwells were placed within individual wells of a 24-well tissue culture dish containing 400 μl of either whole BSN-CM, purified tractions of BSN-CM, or D-12 which were supplemented with human recombinant FGF1 (250 ng/ml; R&D Systems), rat recombinant GDNF (125 ng/ml; R&D Systems) and 10% FCS and cultured. Phase-contrast photomicrographs of the developing UB, WD, or UB and WD were taken using a RT-Slider Spot Digital Camera (Diagnostic Instruments Inc.) attached to a Nikon Eclipse TE300 Inverted Microscope.
Isolated ureteric bud, Wolffian duct bud, or ureteric and Wolffian duct buds were obtained from whole embryonic kidneys as described herein. Briefly, the embryonic kidney was lightly digested with trypsin and the UB, WD, or UB and WD were separated from the MM using fine-tipped needles. The UBs, WDs, or UBs and WDs were suspended within a matrix containing growth factor reduced Matrigel™ and Type I collagen and buffered by HEPES, NaHCO3, and DMEM to a pH of approximately 7.2. This mixture containing the suspended UB, WD, or UB and WD was applied to the top of the Transwell filter and the purified factor is applied to the well. The factor is supplemented with GDNF (125 ng/ml) and 10% FCS, and the isolated UBs, WDs, or UBs and WDs are cultured at 37° C. and humidified 5% CO2 atmosphere and branching morphogenesis, was assayed.
The entire urogenital tract was isolated from timed pregnant Holtzman rats at embryonic day 13 (E13). Kidney rudiments were dissected and lightly digested in trypsin for 15 minutes, after which the ureteric buds were mechanically separated from the metanephric mesenchyme. For the growth factor optimization, the buds were suspended within a matrix containing growth factor-reduced Matrigel™ and DMEM/F12 (50:50 v/v) on a 0.4 μm pore sized Transwell filter and BSN-conditioned media supplemented with 10% FCS and 1% antibiotics was placed beneath the filter. GDNF (125 ng/ml), FGF1 (250 ng/ml), FGF7 (50 ng/ml), HRG (500 ng/ml), PTN (purified from BSN-CM) was added to the media in various combinations to achieve a “minimal” and “most robust” growth factor condition. For the matrix optimization, isolated buds were cultured in a BSN-CM supplemented with 10% FCS, GDNF (125 ng/ml), FGF1 (250 ng/ml), and 1% antibiotics. Isolate buds were suspended in matrices (natural and artificial) consisting of growth factor reduced Matrigel™ diluted with DMEM/F12 (15%, 25%, 50%, 75% and 100%), type I collagen (3.0 mg/ml), Puramatrix™, 1% alginate solution (crosslinked with 100 mM CaCl2), and type IV collagen (0.75 mg/mL). In some cases, type I collagen, laminin 1, alginate or type IV collagen were added to a 50% growth factor reduced Matrigel™ solution. All matrix solutions were supplemented with DMEM and buffered by HEPES and NaHCO3 to a pH of approximately 7.2. The isolated buds were then cultured at 37° C. in a humidified 5% CO2 atmosphere.

In experiment [2] the test system is Wolffian duct. Description: Wolffian duct budding in vitro. The class given is cell-based, rat. The settings on record: whole mesonephros on Transwell filter, 10% serum and 10 ng/mL GDNF, two days. An excerpt:
The entire urogenital tract was isolated from timed pregnant Holtzman rats at embryonic day 13 (E13). Kidney rudiments were dissected, and the Wolffian duct was transected and removed. In some cases, the mesonephric tubules and most of the intermediate mesoderm were mechanically separated from the WD leaving a thin layer of the intermediate mesoderm that remained adherent to the WD. In some cases, the intermediate mesoderm was carefully stripped away in its entirety so that the epithelial tube of the WD remained intact. The WD with mesonephros and the WD with intermediate mesoderm were placed on 0.4 μm pore size Transwell filters and cultured at the air-media interface. The isolated WD devoid of all intermediate mesoderm was suspended in a matrix containing growth factor reduced Matrigel'm and DMEM/F12 (50:50 v/v) on a 0.4 μm pore sized Transwell filter. All cultures were carried out at 37° C. in a fully humidified 5% CO2 atmosphere in the presence of DMEM/F12 (50:50) media supplemented with 10% fetal calf serum (FCS), GDNF (10 ng/mL for the WD plus mesonephros, 125 ng/ml WD plus mesoderm and isolated WD) and, if necessary, either FGF1 (250 ng/ml) or FGF7 (50 ng/ml).

Experiment [3] relates to UB, WD, or UB and WD derived cells. Nature of the experiment: UB cell three-dimensional culture (tubulogenic activity). The settings on record: collagen/Matrigel gel, 1% FCS, 4 days. The class given is cell-based, mouse. Here is the method:
Confluent monolayers of UBs, WDs, or UBs and WDs were removed from tissue culture dishes by light trypsinization and the cells. 20,000 cells/ml were suspended in an extracellular matrix gel composed of 80% Type 1 collagen and 20% growth factor-reduced Matrigel™. 100 μl of the UB, WD, or UB and WD cell-containing gel was then aliquoted into individual wells of a 96-well tissue culture plate. After gelation, 100 μl of growth medium (DMEM/F12 with or without purified pleiotrophin) supplemented with 1% FCS was applied to each well and the cultures were incubated at 32° C. in 5% CO2 and 100% humidity. Following 4 days of culture, the percentage of cells/colonies with processes was counted as an indicator of the tubulogenic activity. Phase-contrast photomicrographs were taken as described herein.

Experiment [4] concerns whole embryonic kidney. Description: Whole embryonic kidney organ culture. The class given is cell-based, rat. The source says:
Timed pregnant female Sprague-Dawley rats at day 13 of gestation (day 0 coincided with appearance of the vaginal plug) were sacrificed and the uteri were removed. The embryos were dissected free of surrounding tissues and the kidneys were isolated. For the culture of the whole kidney rudiment, 2-3 kidneys were applied directly to the top of a polyester Transwell filter (0.4 μm pore size; Corning-Costar). The Transwells were then placed within individual wells of a 24-well tissue culture dish containing 400 μl DMEM/F12 supplemented with 10% FCS with or without purified pleiotrophin. Following 7 days of culture, the kidneys were fixed in 2% paraformaldehyde and doublestained with fluorescein-conjugated Dolichos biflorus, a lectin which binds specifically to UB, WD, or UB and WD-derived structures, and rhodamine conjugated peanut agglutinin, a lectin which binds to structures derived from the MM. Fluorescent staining was detected using a laser-scanning confocal microscope (Zeiss).

Regarding heregulin [HRG], the “growth of the isolated UB, single soluble factor” value (“growth of the isolated UB” below) in experiment [1] is “did not support growth”.

“Hepatocyte growth factor [HGF, reference compound]”: the “induction of isolated UB, WD, or UB and WD branching morphogenesis” value in experiment [1] is listed as “does not induce branching morphogenesis”.

As for fibroblast growth factor-1 [FGF1], the “effect of added FGF1 on inductive capacity of BSN-CM” value in experiment [1] (250 ng/ml FGF1) is “could potentiate the activity of the BSN-CM”. In experiment [1], the “induction of isolated UB, WD, or UB and WD branching morphogenesis” value is on record as “not sufficient to induce”; the Shape result is “tubular”.

B1: fibroblast growth factor-7 (protein, UniProt P21781 32-194, looked up)
Fibroblast growth factor 7: CNDMTPEQMATNVNCSSPERHTRSYDYMEGGDIRVRRLFCRTQWYLRIDKRGKVKGTQEMKNNYNIMEIRTVAVGIVAIKGVESEFYLAMNKEGKLYAKKECNEDCNFKELILENHYNTYASAKWTHNGGEMFVALNQKGIPVRGKKTKKEQKTAHFLPMAIT
notes: growth factor obtained from R&D Systems
As for B1, the Shape result in experiment [1] is “globular”.

B2: glial cell-derived neurotrophic factor (protein, UniProt P39905 78-211, looked up)
Glial cell line-derived …: SPDKQMAVLPRRERNRQAAAANPENSRGKGRRGQRGKNRGCVLTAIHLNVTDLGLGYETKEELIFRYCSGSCDAAETTYDKILKNLSRNRRLVSDKVGQACCRPIAFDDDLSFLDDNLVYHILRKHSAKRCGCI
notes: as for B1
For the molecule B2, the Wolffian duct budding result in experiment [2] is “numerous budding events occurred at multiple foci along the WD”. Also, in experiment [1], the “growth of the isolated UB” value is recorded as “did not support growth”.

B3: pleiotrophin (protein, UniProt P21246 33-168, looked up)
Pleiotrophin: GKKEKPEKKVKKSDCGEWQWSVCVPTSGDCGLGTREGTRTGAECKQTMKTQRCKIPCNWKKQFGAECKYQFQAWGECDLNTALKTRTGSLKRALHNAECQKTVTISKPCGKLTKPKPQAESKKKKKEGKKQEKMLD
For the molecule B3, in experiment [3], the “formation of branching structures of UB cells in three dimensional culture” value was “capable of inducing the formation of branching structures”. Moreover, the “morphology of the branching UB, lower concentrations” value in experiment [1] (156 ng/ml-2.5 pg/ml purified pleiotrophin) is “dichotomous branching and elongation of the stalk”. Besides, the “concentrations useful for morphogenetic activity” value in experiment [1] (cultures in collagen IV or basement membrane Matrigel) lay in the range of 200 to 600 ng/mL. Also, the “growth of the isolated UB” value in experiment [1] is recorded as “did not support growth”. Also, in experiment [1] (pure pleiotrophin isolated from Swiss 3T3 conditioned medium), the “branching morphogenesis of the isolated UB, pleiotrophin purified from 3T3 conditioned medium” value is “capable of inducing impressive branching morphogenesis”. Moreover, the “induction of UB, WD, or UB and WD branching morphogenesis” value in experiment [1] (supplemented with GDNF, in the absence of FGF1) is on record as “capable of inducing”. For the same molecule, the “morphology of the branching UB, high concentration” value in experiment [1] (≧5 μg/ml purified pleiotrophin) is recorded as “robust proliferation with less elongation”. Moreover, the “growth of the UB in whole embryonic kidney organ culture” value in experiment [4] (exogenously added pleiotrophin, 7 days) is recorded as “disproportionately stimulated growth”. Moreover, the “Nephron induction visualized with PNA lectin” value in experiment [4] (high concentrations of pleiotrophin) is on record as “appeared to be normal”.

B4: recombinant human pleiotrophin: recombinant human pleiotrophin produced in the insect cell line (R&D systems) (protein, UniProt P21246 33-168, looked up)
Pleiotrophin: GKKEKPEKKVKKSDCGEWQWSVCVPTSGDCGLGTREGTRTGAECKQTMKTQRCKIPCNWKKQFGAECKYQFQAWGECDLNTALKTRTGSLKRALHNAECQKTVTISKPCGKLTKPKPQAESKKKKKEGKKQEKMLD
B4: in experiment [1] (E13 rat bud in extracellular matrix gel, with GDNF), the “branching morphogenesis of the isolated UB, WD, or UB and WD” value was “unable to induce”.

The record behind these values is patent US8460929B2, “Methods of tissue generation and tissue engineered compositions” (The Regents of the University of California, priority 2007, dated 2013).
